From article PMC3799952 (Biochemistry, 2013)
Where a chain is given by its changes, count along the chain named. Names and notes keep the numbering of the source.

B1: amino terminus-truncated recombinant human aromatase, wild type (enzyme)
chain: MAKKTSSKGRNYEGTSSIPGPGYCMGIGPLISHGRFLWMGIGSACNYYNRVYGEFMRVWISGEETLIISKSSSMFHIMKHNHYSSRFGSKLGLQCIGMHEKGIIFNNNPELWKTTRPFFMKALSGPGLVRMVTVCAESLKTHLDRLEEVTNESGYVDVLTLLRRVMLDTSNTLFLRIPLDESAIVVKIQGYFDAWQALLIKPDIFFKISWLYKKYEKSVKDLKDAIEVLIAEKRRRISTEEKLEECMDFATELILAEKRGDLTRENVNQCILEMLIAAPDTMSVSLFFMLFLIAKHPNVEEAIIKEIQTVIGERDIKIDDIQKLKVMENFIYESMRYQPVVDLVMRKALEDDVIDGYPVKKGTNIILNIGRMHRLEFFPKPNEFTLENFAKNVPYRYFQPFGFGPRGCAGKYIAMVMMKAILVTLLRRFHVKTLQGQCVESIQKIHDLSLHPDETKNMLEMIFTPRNSDRCLEH
B2: rArom E181A (enzyme, human)
chain: B1 chain with E152A
B3: rArom E181K (enzyme, human)
chain: B1 chain with E152K

Target: the molecule itself
Test: native gel or EMSA

Row | Protein | stoichiometry N
1 | B1 | 5
2 | B2 | 2
3 | B3 | 2
